This passage reports t1/2 of the complex results from PMC2763920.

Square brackets hold non-standard residues; d marks the D form. Ends that are not written are not given here. pY = N[C@@H](Cc1ccc(OP(=O)(O)O)cc1)C(=O)O

The target in test [1] is Fyn-SH3-SH2 (GST tag cleaved with thrombin). In words: fluorescence polarisation.
The target is the same in test [2]. In words: high-speed capillary electrophoresis.
Test [3] has the same target. In words: NECEEM.

For the molecule fluorescein-EEEEPQ[pY]EEIPIYL [Fluor-Fyn peptide (fluorescein-EEEEPQpYEEIPIYL)], the t1/2 of the complex is 53.5 s in test [1], 48.4 s in test [2] and 101 s in test [3].
